Laboratory results as given in patent publication US20120294860A1 (TORAY INDUSTRIES, published 2012).

T1: human CAPRIN-1 protein expressed on the surface of human cancer cells (human, UniProt Q14444 2-709)
T1 sequence: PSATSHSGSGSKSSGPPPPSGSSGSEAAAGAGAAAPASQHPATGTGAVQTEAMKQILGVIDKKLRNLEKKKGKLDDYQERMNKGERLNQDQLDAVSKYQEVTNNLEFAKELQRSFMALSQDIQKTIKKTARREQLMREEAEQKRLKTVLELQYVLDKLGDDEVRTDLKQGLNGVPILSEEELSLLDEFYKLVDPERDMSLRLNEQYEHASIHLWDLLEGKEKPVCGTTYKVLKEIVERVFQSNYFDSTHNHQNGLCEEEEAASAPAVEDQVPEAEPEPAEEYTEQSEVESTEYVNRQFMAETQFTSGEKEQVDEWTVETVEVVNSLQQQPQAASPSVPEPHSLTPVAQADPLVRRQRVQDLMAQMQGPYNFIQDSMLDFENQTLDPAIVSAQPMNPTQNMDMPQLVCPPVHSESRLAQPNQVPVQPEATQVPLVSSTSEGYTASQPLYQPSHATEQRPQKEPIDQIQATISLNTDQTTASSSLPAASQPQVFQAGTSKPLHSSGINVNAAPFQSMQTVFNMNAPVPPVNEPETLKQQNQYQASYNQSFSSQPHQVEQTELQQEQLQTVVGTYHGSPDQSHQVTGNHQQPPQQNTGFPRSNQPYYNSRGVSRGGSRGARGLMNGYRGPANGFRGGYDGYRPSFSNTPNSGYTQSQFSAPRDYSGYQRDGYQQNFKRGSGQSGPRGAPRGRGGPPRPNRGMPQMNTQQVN


biological target: T1, human CAPRIN-1 protein expressed on the …; test: cell-based or functional assay

| ADCC activity against MDA-MB-157 | CDC activity against MDA-MB-231V | Binder |
| --- | --- | --- |
| ≥ 20% | ≥ 30% | anti-CAPRIN-1 monoclonal antibody #7 (antibody, V domains shown) VH: LQESGAELARPGASVKLSCKASGYTFTSYWMQWVKQRPGQGLEWIGAIYPGDGDTRYTQKFKGKATLTADKSSSTAYMQLSSLASEDSAVYYCARGEYGNYFAYWGQGTTVTVSS VL: TSDASLGERVTITCKASQDINSYLSWFQQKPGKSPKTLIYRANRLVDGVPSRFSGSGSGQDYSLTISSLEYEDMGIYYCLQYDEFPLTFGGGTKLEIKQ |
| ≥ 20% | ≥ 30% | anti-CAPRIN-1 monoclonal antibody #1 (antibody, V domains shown) VH: EVQLHQFGAELVKPGASVKISCKASGYTFTDYNMDWVKQSHGKSLEWIGDINPNYDSTSYNQKFKGKATLTVDKSSSTAYMELRSLTSEDTAVYYCARSRSYDYEGFAYWGQGTLVTVSA VL: DIQMTQSPASLSASVGETVTITCRASGNIHNYLAWYQQKQGKSPQLLVYNAKTLADGVPSRFSGSGSGTQYSLKINSLQPEDFGSYYCQHFWSTLTFGAGTKLELKR |
| ≥ 20% | ≥ 30% | anti-CAPRIN-1 monoclonal antibody #4 (antibody, V domains shown) VH: EVQLHQFGAELVKPGASVKISCKASGYTFTDYNMDWVKQSHGKSLEWIGDINPNYDSTSYNQKFKGKATLTVDKSSSTAYMELRSLTSEDTAVYYCARSRSYDYEGFAYWGQGTLVTVSA VL: SGDRVSLSCRASQSISNYLHWYQQKSHESPRLLIKYASQSISGIPSRFSGSGSGTDFTLSINSVETEDFGMYFCQQSNSWPYTFGAGTKLEIKQ |
| ≥ 20% | ≥ 30% | anti-CAPRIN-1 monoclonal antibody #3 (antibody, V domains shown) VH: EVQLHQFGAELVKPGASVKISCKASGYTFTDYNMDWVKQSHGKSLEWIGDINPNYDSTSYNQKFKGKATLTVDKSSSTAYMELRSLTSEDTAVYYCARSRSYDYEGFAYWGQGTLVTVSA VL: DIQLTQSPASLSASVGETVTITCRASGNIHNYLAWYQQKQGKSPQLLVYNAKTLADGVPSRFSGSGSGTQYSLKINSLQPEDFGSYYCQHFWSTLTFGGGTKLEIK |
